The assay addresses T1, V5-tagged human lipoprotein lipase (LPL) (human, UniProt P06858 28-475).
T1 construct: also called V5-tagged human LPL; V5-LPL; not shown: V5 tag
T1 sequence: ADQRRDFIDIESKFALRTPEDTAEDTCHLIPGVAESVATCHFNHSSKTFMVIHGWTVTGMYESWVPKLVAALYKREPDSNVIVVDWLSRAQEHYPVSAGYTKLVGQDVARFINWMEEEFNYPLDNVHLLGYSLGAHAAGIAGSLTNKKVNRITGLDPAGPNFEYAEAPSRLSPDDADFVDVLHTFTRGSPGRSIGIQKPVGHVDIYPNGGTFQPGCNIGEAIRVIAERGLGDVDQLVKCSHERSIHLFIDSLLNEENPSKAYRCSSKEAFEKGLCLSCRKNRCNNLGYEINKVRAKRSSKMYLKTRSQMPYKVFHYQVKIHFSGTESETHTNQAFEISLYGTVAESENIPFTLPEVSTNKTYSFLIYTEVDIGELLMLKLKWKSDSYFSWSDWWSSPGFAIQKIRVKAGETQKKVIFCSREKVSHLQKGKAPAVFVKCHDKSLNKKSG
As to the kind of experiment: cell-based LPL binding, western blot of CHO cell extracts (FIG. 4A). The protocol: FIG. 4A-B. GPIHBP1 Autoantibodies Block the Binding of LPL to GPIHBP1. […] The LPL used in these experiments was V5-tagged. Western blots were performed with a goat antibody against the S-protein tag (Abcam, 5 μg/ml), followed by an IRDye 680-donkey anti-goat IgG (LI_COR, 1:2000; GPIHBP1) and an IRDye 800-V5 antibody (1:500; LPL). Actin was used as a loading control, and was detected with a rabbit antibody against actin (Abcam, 5 μg/ml) followed by an IRDye 800-donkey anti-rabbit IgG (LI-COR, 1:2000; lower panel). […] In lane 5, pre-incubation of cells with plasma 38 (1:20) abolished LPL binding. […] In lane 2, a mutant GPIHBP1 (GPIHBP1-W109S), which lacks the ability to bind LPL, was included as a control. […] DNA was stained with DAPI (fourth column).
Expression vectors for S-protein-tagged wild-type (wt) GPIHBP1, GPIHBP1-G175R, and GPIHBP1-W109S (or the empty vector) were transfected into CHO pgsA-745 cells or human umbilical vein endothelial cells (HUVEC). After 1 day, the cells were washed three times in PBS and incubated for 1 h at 4° C. with V5-tagged human LPL (900 ng/well). Then the cells were washed six times in PBS, and cell lysates were collected in RIPA buffer (Sigma) containing a protease inhibitor cocktail (Roche). […]

B1: S-protein-tagged wild-type human GPIHBP1 (GPIHBP1-wt) expressed on transfected CHO pgsA-745 cells (receptor)
chain: QTQQEEEEEDEDHGPDDYDEEDEDEVEEEETNRLPGGRSRVLLRCYTCKSLPRDERCNLTQNCSHGQTCTTLIAHGNTESGLLTTHSTWCTDSCQPITKTVEGTQVTMTCCQSSLCNVPPWQSSRVQDPTG
notes: also called GPIHBP1-transfected cells; GPIHBP1-expressing cells; not shown: S-protein tag
For B1, the binding result is given as “binds”.

The record behind these values is patent US20190160076A1 (University of California, published 2019).
